# Data: patent US5668109A, “Peptides for inhibiting pepsin release” (Societe de Conseils de Recherches et D'Applications …, priority 1994, dated 1997)
# Square brackets hold non-standard residues; d marks the D form. Ends that are not written are not given here.
# Settings: in vivo
substance,measurement,value
Pro--Val--Thr--Lys--Pro--Gln-D-Ala--NH2 (PVTKPQ[dA]-NH2; N-terminus assumed; SMILES CC(C)[C@H](NC(=O)[C@@H]1CCCN1)C(=O)N[C@H](C(=O)N[C@@H](CCCCN)C(=O)N1CCC[C@H]1C(=O)N[C@@H](CCC(N)=O)C(=O)N[C@H](C)C(N)=O)[C@@H](C)O) [P^D1],quantity found in the organism,greater than 10%
